Assay results taken from patent publication CN106432498A (UNIV ANHUI, dated 2017).

B1: H2BL2抗体 (humanized anti-uPAR antibody H2BL2) (antibody, human IgG1, kappa, V domains shown)
VH: EVQLVQSGAEVKKPGSSVKVSCKASGYTFTDYYIHWVRQAPGQGLEWIGWIFHGSDNTEYNEKFKSKATITADESTSTAYMELSSLRSEDTAVFYCARWGPHWYFDAWGRGTLVTVSS
VL: DIQMTQSPSTLSASVGDRVTITCRASSSVSYIHWYQQKPGRAPKPLMYEASSRATGVPSRFSGSGSGTEYTLTISSLQSDDFATYYCQQWNYPFTFGQGTKLEIKR
notes: also called H2BL2溶液
B2: ATN615抗体 (monoclonal antibody targeting uPAR) (antibody, V domains shown)
VH: GVKLQQSGPEVVKPGASVKISCKASGYSFTNFYIHWVKQRPGQGLEWIGWIFHGSDNTEYNEKFKDKATLTADTSSSTAYMQLSSLTSEDSAVYFCARWGPHWYFDVWGQGTTVTVSS
VL: DIVLTQSPDITAASLGQKVTITCSASSSVSYMHWYQQKSGTSPKPWIFEISKLASGVPARFSGSGSGTSYSLTISSMEAEDAAIYYCQQWNYPFTFGGGTKLEIKR
notes: Made in the same way as H2BL2 (293F cells, protein A); also called ATN615溶液

Columns and labels:
[1] = biological target: T1, 重组人uPAR蛋白 (recombinant human uPAR protein, uPAR-ECD) (human, UniProt Q03405 23-303, limits assumed); test: BLI (Fortebio), antibody captured on anti-human IgG Fc sensor, uPAR-ECD at 0.25-1 μM
T1 construct: extracellular domain; Bought reagent

[2] = biological target: 人尿激酶型纤溶酶原激活物受体 (human uPAR) on SW480 cells (human) (UniProt Q03405); test: flow cytometry on SW480 cells, antibody at 5 μg/ml, FITC goat anti-human IgG

T1 sequence (Q03405 23-303 limits assumed): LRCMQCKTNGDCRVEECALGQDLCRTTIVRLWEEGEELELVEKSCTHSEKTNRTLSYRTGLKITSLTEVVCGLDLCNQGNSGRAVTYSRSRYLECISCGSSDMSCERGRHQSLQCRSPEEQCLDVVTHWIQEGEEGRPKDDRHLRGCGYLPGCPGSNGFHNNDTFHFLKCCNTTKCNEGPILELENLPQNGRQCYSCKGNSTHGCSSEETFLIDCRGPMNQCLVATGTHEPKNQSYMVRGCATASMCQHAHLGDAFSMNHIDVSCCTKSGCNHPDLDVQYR

Row | Binder | Kd [1] | koff [1] | kon [1] | 平均荧光强度 [2] | 阳性率 [2]
1 | B1 | 6.32 nM | 0.000454 s⁻¹ | 71800 M⁻¹ s⁻¹ | 4.44 | 99.6%
2 | B2 | 7.45 nM | 0.000576 s⁻¹ | 77300 M⁻¹ s⁻¹ | – | –
